In publication PMC2859679 (Journal of molecular biology, 2009):

Molecular target: the molecule itself
Test: crystal structure

B1: MhuD (mycobacterial heme utilization, degrader), Rv3592, from Mycobacterium tuberculosis (enzyme)
chain: MPVVKINAIEVPAGAGPELEKRFAHRAHAVENSPGFLGFQLLRPVKGEERYFVVTHWESDEAFQAWANGPAIAAHAGHRANPVATGASLLEFEVVLDVGGTGKTA
- binding result: binds
